Reference: the RNAGym collection of RNA variant scans (doi:10.7554/elife.90254)

B1: LINE1-full (parent)
chain: UACGUAGGUGGUUUUCCCCUGAUAGUGCUAAGGGGGCCUGGAAGUUUGGACUGGGCAGAGCUCAACACAGCGUGGCAAAGUGGCUGUGGCUAGACUGCCUCUCUGGAUUCCUCGUCACUCAGCAGGGCAUCUCUGAGAGAAAUGCC

Variants of: B1
Assay: self-cleavage, relative activity (ratio to wild type); higher = more cleavage; in vitro, sequencing; the parent is a self-cleaving ribozyme

Compared with U20C U45G, U20C U45A is lower in self-cleavage: 1.38 for the first, 1.2 for the second.

First: G21A C118U
Second: G21C U132C
The self-cleavage of the first is lower: 1.07 for the first, 1.27 for the second.

First: A22C U102C
Second: U20C C113U
The self-cleavage of the first is lower: 1.55 for the first, 1.62 for the second.

First: U20A U47A
Second: U20A U47C
The self-cleavage of the first is lower: 1.07 for the first, 1.31 for the second.

Compared with U20C U96A, U20C U85A is lower in self-cleavage: 0.12 for the first, 0.11 for the second.

First: U20C U85C
Second: U20G U102C
The self-cleavage of the first is lower: 0.38 for the first, 1.73 for the second.

Going from U20C G135A to G21A U62C, the self-cleavage falls from 1.48 to 0.05.

Compared with C19U G34A, U20A U87G is lower in self-cleavage: 0.75 for the first, 0.21 for the second.

Compared with U20A U87C, U20A U87A is lower in self-cleavage: 0.31 for the first, 0.11 for the second.

First: U20A U104C
Second: G21A A141G
The self-cleavage of the first is lower: 0.93 for the first, 1.16 for the second.

Going from U20C U81C to U20C U81A, the self-cleavage rises from 1.13 to 1.44.

Compared with U20C U130A, U20C U130G is lower in self-cleavage: 1.65 for the first, 1.63 for the second.

Going from U20C U130C to U20C C84G, the self-cleavage falls from 1.77 to 0.09.

Compared with U20C C66U, U20A C63U is higher in self-cleavage: 0 for the first, 0.45 for the second.

First: U20A A78G
Second: A22C U39C
The self-cleavage of the first is lower: 1.39 for the first, 2.06 for the second.

Compared with A22G A107U, U20C G40A is higher in self-cleavage: 0 for the first, 1.1 for the second.

Going from U20C A142C to U20C A142G, the self-cleavage falls from 1.88 to 1.36.

First: U20C A142U
Second: U20A G139A
The self-cleavage of the first is higher: 2.2 for the first, 0.53 for the second.

Going from U20C G54A to U20A U62A, the self-cleavage falls from 0.65 to 0.07.

Compared with U20C G86A, U20G G74A is higher in self-cleavage: 0.11 for the first, 1.29 for the second.

Going from U20C U39G to A22C A42G, the self-cleavage rises from 0.8 to 1.86.

Going from C19U G72A to C19U G72C, the self-cleavage rises from 1.19 to 1.31.

First: U20G G27A
Second: U20C U23A
The self-cleavage of the first is lower: 0.92 for the first, 1.81 for the second.

Compared with U20C U23C, U20A G97C is lower in self-cleavage: 1.2 for the first, 0.34 for the second.

First: U20A U46A
Second: U20A U46C
The self-cleavage of the first is lower: 0.96 for the first, 1.49 for the second.

Compared with A22G A69G, A22G A69U is lower in self-cleavage: 0.59 for the first, 0.14 for the second.

First: G21U U81C
Second: U20G G127A
The self-cleavage of the first is lower: 1.01 for the first, 1.37 for the second.

First: U20A U81C
Second: A22G C95U
The self-cleavage of the first is higher: 0.84 for the first, 0.53 for the second.

Compared with U20G U100C, U20C A138U is higher in self-cleavage: 1.06 for the first, 1.42 for the second.

Compared with U20C A138G, U20A C71U is lower in self-cleavage: 1.55 for the first, 1.22 for the second.

Going from A22G A67U to A22G A67G, the self-cleavage rises from 0.23 to 0.63.

Compared with U20A G35C, G21A U115G is lower in self-cleavage: 1.12 for the first, 0.96 for the second.

Going from G21A U115C to U20G A107G, the self-cleavage falls from 2.12 to 0.72.

Compared with U20G A140G, U20G A140U is higher in self-cleavage: 0.96 for the first, 1.23 for the second.

First: U20C U46C
Second: U20A U134C
The self-cleavage of the first is higher: 1.5 for the first, 1.32 for the second.

First: U20A G41C
Second: U20A G41U
The self-cleavage of the first is lower: 0.73 for the first, 0.96 for the second.

First: U20A U108C
Second: U20A U29C
The self-cleavage of the first is higher: 1.95 for the first, 1.09 for the second.

Compared with G21U U47C, U20G U46C is higher in self-cleavage: 0.72 for the first, 2.3 for the second.

Going from U20A U45A to A22G A30U, the self-cleavage falls from 1.05 to 0.58.

Going from A22G A30G to C19U U119C, the self-cleavage rises from 0.86 to 1.38.

First: C19U U20C
Second: U20G G135A
The self-cleavage of the first is lower: 0.93 for the first, 0.98 for the second.

Going from U20C U47C to U20C A57U, the self-cleavage falls from 1.57 to 0.07.

First: U20C A57G
Second: G21U U45C
The self-cleavage of the first is lower: 1.19 for the first, 1.44 for the second.

Compared with U20C A141U, U20C A141G is higher in self-cleavage: 1.36 for the first, 1.54 for the second.

Compared with C19U U47A, U20C A65U is lower in self-cleavage: 0.69 for the first, 0.14 for the second.

First: G21U
Second: G21C
The self-cleavage of the first is higher: 1.1 for the first, 0.69 for the second.

Compared with G21A, U20A U115A is higher in self-cleavage: 1.14 for the first, 2.02 for the second.

Compared with U20A C111A, U20C C110A is lower in self-cleavage: 1.19 for the first, 0.41 for the second.

Going from G21U A79G to G21U G35A, the self-cleavage rises from 1.32 to 1.36.

Going from C19U U81C to A22G A78G, the self-cleavage falls from 1 to 0.94.

Going from A22G A78U to G21U G127A, the self-cleavage rises from 1.85 to 1.99.

Compared with U20C A117U, U20C A117C is higher in self-cleavage: 1.61 for the first, 1.64 for the second.

Compared with C19U G75A, U20C G48U is higher in self-cleavage: 1.11 for the first, 1.27 for the second.

First: U20A A59G
Second: U20A U39A
The self-cleavage of the first is lower: 0.15 for the first, 0.84 for the second.

Compared with U20C U112C, U20C U112A is lower in self-cleavage: 1.4 for the first, 0.61 for the second.

First: C19U U132C
Second: U20G U52A
The self-cleavage of the first is lower: 0 for the first, 1.36 for the second.

Going from A22G C38U to U20C A30G, the self-cleavage falls from 1.95 to 1.39.

Compared with U20C A30U, G21A U132C is higher in self-cleavage: 1.18 for the first, 1.63 for the second.

First: G21U A136G
Second: C19U U62C
The self-cleavage of the first is higher: 1.84 for the first, 0.06 for the second.

First: U20A U143A
Second: U20A U143C
The self-cleavage of the first is higher: 1.43 for the first, 0.9 for the second.

Compared with C19U U29C, A22C U115A is higher in self-cleavage: 1.37 for the first, 1.46 for the second.

Going from A22C U143C to U20C A59U, the self-cleavage falls from 1.41 to 0.82.

Going from U20A A124U to U20A A124G, the self-cleavage falls from 0.91 to 0.76.

Compared with C19U G105U, U20C C128U is lower in self-cleavage: 1.55 for the first, 1.24 for the second.

First: U20A C131U
Second: A22G C84U
The self-cleavage of the first is higher: 1.36 for the first, 0.24 for the second.

First: U20A C120U
Second: U20G U115C
The self-cleavage of the first is lower: 1.32 for the first, 1.95 for the second.

Compared with U20G U39C, C19U U23C is lower in self-cleavage: 0.98 for the first, 0.79 for the second.

Going from C19U U23A to U20C U52C, the self-cleavage rises from 1.1 to 1.76.

Compared with U20C U52G, U20C C131U is lower in self-cleavage: 1.81 for the first, 1.18 for the second.

Going from G21A A65C to U20G A69U, the self-cleavage falls from 0.02 to 0.

Compared with U20A A43C, U20A A43G is higher in self-cleavage: 0.84 for the first, 1.12 for the second.

Going from U20C C133U to U20C C146U, the self-cleavage rises from 1.16 to 1.27.

Compared with U20A A69G, G21C U109C is higher in self-cleavage: 0.45 for the first, 1.18 for the second.

Going from A22G A124G to A22G A124U, the self-cleavage falls from 0.96 to 0.8.

Compared with A22G A124C, U20A G25A is lower in self-cleavage: 1.49 for the first, 0.37 for the second.

First: U20G U104A
Second: U20C G36A
The self-cleavage of the first is higher: 1.29 for the first, 1.23 for the second.

Compared with G21U A92G, U20A A79U is higher in self-cleavage: 0.1 for the first, 1.59 for the second.

First: C19U U96C
Second: G21A U73C
The self-cleavage of the first is lower: 0.18 for the first, 1.41 for the second.

Going from U20C A67G to U20C A67U, the self-cleavage falls from 0.74 to 0.15.

Going from U20C U73C to U20C U73A, the self-cleavage falls from 1.62 to 1.56.

Compared with U20C A24U, U20C A24G is lower in self-cleavage: 1.37 for the first, 1.11 for the second.

Compared with A22C U96C, U20C A42G is higher in self-cleavage: 0.26 for the first, 1.25 for the second.

First: A22G C76G
Second: G21A U91A
The self-cleavage of the first is higher: 2.86 for the first, 0.37 for the second.

With G21A G135A the self-cleavage was 1.22.
